T1: IL-2Rα-Fc (Acro Biosystems, catalog #ILA-H5251) (UniProt P01589 22-217, limits assumed)
T1 construct: Bought reagent; Captured on an anti-Fc chip as SPR ligand; also called CD25; not shown: Fc part of the bought fusion
T1 sequence (looked up): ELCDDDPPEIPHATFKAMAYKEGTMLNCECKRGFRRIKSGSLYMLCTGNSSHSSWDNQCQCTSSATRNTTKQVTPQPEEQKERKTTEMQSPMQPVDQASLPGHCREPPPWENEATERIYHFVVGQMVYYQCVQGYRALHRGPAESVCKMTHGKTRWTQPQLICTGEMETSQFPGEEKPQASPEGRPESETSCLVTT

T2: IL-2Rβ-Fc (Acro Biosystems, catalog #ILB-H5253) (UniProt P14784 27-239, limits assumed)
T2 construct: Bought reagent; Captured on an anti-Fc chip as SPR ligand; also called CD122; not shown: Fc part of the bought fusion
T2 sequence (looked up): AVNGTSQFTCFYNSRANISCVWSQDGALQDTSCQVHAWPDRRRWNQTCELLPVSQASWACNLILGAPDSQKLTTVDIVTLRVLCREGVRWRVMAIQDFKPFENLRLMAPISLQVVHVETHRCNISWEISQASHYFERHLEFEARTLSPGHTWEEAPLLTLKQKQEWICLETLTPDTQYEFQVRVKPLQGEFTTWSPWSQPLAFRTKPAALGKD

B1: Ald-6HIS_K34pAMF (SP9833) conjugated to DBCO 2 x 10 kDa PEG (PEG2) (ligand)
chain: MPTSSSTKKTQLQLEHLLLDLQMILNGINNYKNPFLTRMLTFKFYMPKKATELKHLQCLEEELKPLEEVLNLAQSKNFHLRPRDLISNINVIVLELKGSETTFMCEYADETATIVEFLNRWITFSQSIISTLTGGSHHHHHH
modifications: X35 = pAMF (K34) conjugated to branched 20 kDa PEG (DBCO 2 x 10 kDa PEG, PEG2)
notes: also called SP9833 PEG2 conjugated
B2: Ald-6HIS_K34pAMF (SP9833), unconjugated (ligand)
chain: B1 chain
modifications: X35 = pAMF (K34 in SEQ ID NO: 2/3 numbering)
notes: also called Aldesleukin-6His K34TAG p-azidomethyl-L-phenylalanine

Columns and labels:
[1] = target: T1, IL-2Rα-Fc (Acro Biosystems, catalog …); test: SPR (Biacore T200), kinetic; receptor-Fc captured on anti-Fc CM5 chip, IL-2 variant as analyte; conjugated to DBCO 2 x 10 kDa PEG (PEG2)
Experimental: (§1) Anti-Fc polyclonal antibodies were immobilized onto a CM5 chip (GE Life Sciences) using amine coupling chemistry (from Amine Coupling Kit, GE Life Sciences). The immobilization steps were carried out at a flow rate of 25 μL/minute in 1×HBS-EP+ buffer (GE Life Sciences; 10× Stock diluted before use). The sensor surfaces were activated for 7 minutes with a mixture of NHS (0.05 M) and EDC (0.2 M). The anti-Fc antibodies were injected over all four flow cells at a concentration of 25 μg/mL in 10 mM sodium acetate, pH 4.5, for seven minutes. Ethanolamine (1 M, pH 8.5) was injected for seven minutes to block any remaining activated groups.
(§2) Kinetic binding experiments were performed at 25° C. using 1×HBS-EP+ with 0.05% BSA buffer. IL-2Rα-Fc or IL-2Rβ-Fc (Acro Biosystems, catalog #ILA-H5251, ILB-H5253) was injected over the anti-Fc surface at concentrations of 3-10 μg/mL for 12 seconds at a flow rate of 10 μL/minute on flow cells 2, 3 and 4, followed by a buffer wash for 30 seconds at the same flow rate. Kinetic characterization of conjugated or unconjugated aldesleukin or variants was carried out in a range of concentrations from 1 nM-10 μM and one injection of no antigen. After capturing ligand (IL-2Rα-Fc or IL-2Rβ-Fc) on the anti-Fc surface, the analyte (IL-2 variant) was bound for 60 seconds, followed by a 180 second dissociation phase at a flow rate of 50 μL/min. […]

[2] = target: T2, IL-2Rβ-Fc (Acro Biosystems, catalog …); test: SPR (Biacore T200), kinetic; receptor-Fc captured on anti-Fc CM5 chip, IL-2 variant as analyte
Experimental: as §1
Kinetic binding experiments were performed at 25° C. using 1×HBS-EP+ with 0.05% BSA buffer. IL-2Rα-Fc or IL-2Rβ-Fc (Acro Biosystems, catalog #ILA-H5251, ILB-H5253) was injected over the anti-Fc surface at concentrations of 3-10 μg/mL for 12 seconds at a flow rate of 10 μL/minute on flow cells 2, 3 and 4, followed by a buffer wash for 30 seconds at the same flow rate. Kinetic characterization of conjugated or unconjugated aldesleukin or variants was carried out in a range of concentrations from 1 nM-10 μM and one injection of no antigen. After capturing ligand (IL-2Rα-Fc or IL-2Rβ-Fc) on the anti-Fc surface, the analyte (IL-2 variant) was bound for 60 seconds, followed by a 180 second dissociation phase at a flow rate of 50 μL/min. Between each ligand capture and analyte binding cycle, regeneration was carried out using two injections of 10 mM Glycine pH 1.5 for 30 seconds at 30 μL/minute, followed by a 30 second buffer wash step.

[3] = target: T1, IL-2Rα-Fc (Acro Biosystems, catalog …); test: SPR (Biacore T200), kinetic; receptor-Fc captured on anti-Fc CM5 chip, IL-2 variant as analyte; unconjugated (pAMF incorporated, no PEG)
Experimental: as §1, §2

Binder	Kd [1] [nM]	Kd [2] [nM]	Kd [3] [nM]
B1	800	–	–
B2	–	300	7
